Data as given in the nanobody polyreactivity screen of Harvey et al. (2022).

assay: yeast display, Sf9 membrane polyspecificity reagent, FACS + sequencing; frameworks hold sequencing errors
Procedure, shortened: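 Genes from sorted yeast were amplified by colony PCR, read by MiSeq 2 × 250 sequencing and filtered on CDR length. These cells carried a synthetic nanobody library in Saccharomyces cerevisiae BJ5465 and were sorted by FACS into low and high (top ~1%) gates on anti-HA and streptavidin fluorescence. Polyreactivity is labelled according to the gate of origin.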

Sequence | polyreactivity (PSR sort gate)
QVQLVESGGGLVHAGGSLRLSCAASGFIFWDYAMGWYRQAPGKERELVAAISDSGGDTYYADSVKGRFTISRDNAKNTVNLQMNRLKPEDTAVYYCAAYSPSSRFDRRGYWGQGNQVTVSS | low polyreactivity
QVQLVESGGGLVQAGGSLRLSCAASGRIFKSYAMGWYRQAPGKERELVAAIRSGGSTYYADSVKGRFTISRDNAKYTVYLQMNSLKPEDTAVYYCNRVTRTWKVTYHYWGQGTQVTVSS | high polyreactivity
QVQLVDSGGGLVQAGGSLRISCAASGSTFSINTMGTYRQAPGKERELVAAITTRGSSTYYADSVKGRFTISRDNAKNTVYLKMNSLKPEDTAVYYFNAPYRVTGGRYRWYDYWGQATQVTVSS | high polyreactivity
QVQLVESGGGLVQAGGSLRLSCAASGFIFRYYAMGWYRQAPGKERELVARISSSGGRTYYADSVKGRFTISRDNAKNTVYLQMNSLKPEDTAVYYCNTADYHGRWAFAWYGDYWGQGTQVTVSS | high polyreactivity
QVHLVESGGGLVQAGGSLRLSCAASGSTFAPNAMGWYRQAPGKERELVASIRRGGSTHYADSVKGRFTISRDNAKNSVYLQMNSLKPEDTAVYYCATDQDPCSWYRYDYWGQGTQVTVSS | low polyreactivity
QVQLVESAGGLVQAGGSLRLSCAASGSIFSPYAMGWYRQAPGKERELVAAITWNGGRTYYADSVKGRFTISRDNAKNTVYLHMNSLKPEDTAVYYCTAASQSRYYYWGQGTQVTVSS | high polyreactivity
QVQLVESGGGLVQAGGSLRLSCAASGRIFAAYAMGWYRQAPGKERELVAGISRGGRTYYADSVKGRFTISRDNAKNTVYLQMNSLKPEDTAVYYCNKAPSWWDVRVPFDYWGQGTQVTVSS | low polyreactivity
QVQLVESGGGLVQAGGSLRLSCAASGRIFYRNAMGWSRQAPGKERELVASITSAGRTYYADSVKGRFTISRDNAKNTVYLQMNSLKPEDTAVYYCAVRVAVLLNLYGYWGQGTQVTVSS | low polyreactivity
QVQLVESGGGLVQAGGSLRISCAASGRTFYTYDMGWYRQAPGKERQLVAAISSSGSTYYADSVKGRFTISRDNAKNTVYLQMNSLKPEDTAGYYCNARTSRYRRGGDSWGQGTQVTVSS | high polyreactivity
QVQLVESGGGLVQAGGSLRLSCAASGSTFSTNAMGCYRQAPGKERELVAAISGRGGRTYYADSVKGRFTISRDNAKNTVYLQMTSLKPEDTAVYYCNTDSYLRMDYWGQGTQVTVSS | high polyreactivity
QVQLVESGGGLVQAGGSLRLICAASGRTFRLYAMGWYRQAPGKERELVAAITRGGRTNYADSVKGRFTISRDNAKNTVYLQMNSLKPEDTAVYYCAARYVERHTDYYYWGQGTQVTVSS | low polyreactivity
QVQLVESAGGLVQAGGSLRLSCDASGYTFNYNTMGCYRQARGKERELVSAINTSGSTDYADSVKGRFTISRDNAKNTDYLLMNRLKPEDTAVYYCAVRVAYKYNYWGQGTQETVSS | high polyreactivity
QVQLVESGGGLVQAGGSLRLSCAASGSTFGGYAMGWYRQAPGKERELVAAISKSGGSTYYADSVKGRFTISRDNAKNTVYLQMNSLKPEDTAVYYCNAPYKRSPYNYWGQGTQVTVSS | high polyreactivity
QVQLVESGGGLVQAGGSLRLICAASGSTLIWNAMGWYRQAPGKEMELVAVISFSGVSTYYADSVKGRFTISRDNAKNTVYLQMNSLKPEDTAVYYCAAGRYLYNYYGYVDKYGYWGQGTQVTVSS | low polyreactivity
QVQLVESGGGLVQAGGSLRLRCAASGGIFSIYAMGWYRQAPGKERELVAAISTSGGSTYYADSVKARFTISRDNAKNTVYLQMNSLKPEDTAVYYCNARSQQWWLSRYNYWGQGTQVTVSS | high polyreactivity
QVQLVETGGGLVQAGGSLRLSCAASVRIFFVYAMGWYRQAPGKERELVAAITYDDGDTFYADSVKGRFTISRDNAKNTVYLQMNSLKPEDTAVYYCAAEGYSYIQSDLDYWGQGTQVTVSS | high polyreactivity

Sequence | polyreactivity (PSR sort gate)
QVQLVESGGGLVQAGGSLRLSCAASGGIFYSYAMGWYRQAPGKEREFVAAIRRSGGRTYYADSVKGRFTISRDNAKNTVYLQMNSLKPEDTAVYYCAADGWYSGGHDYWGQGTQVTVSS | high polyreactivity
QVQLVESGGGLVQAGGSLRLSCAASGRTLPAYAMGWYRQAPGKERELVAAISWGGGSTYYADSVKGRFTISRDNAKNTVYLQMNSLKPEDTAVYYCAVAGYWFAVAEYDYWGQGTQVTVSS | low polyreactivity
QVQLVESGGGLVQAGGSLRLSCAASGSIISFNTMGWYRQPPGKEREFVASIRRRGGSTYYADSVKGRFTISRDNAKNTVYLQMNSLKPEDTAVYYCAKANPHYVISDGVYHPRGGYWGQGTQVTVSS | low polyreactivity
QVQLVESGGGLVQAGGSLRLSCAASGIIFYFYAMGWYRQAPGKERELVAAISRGGSTKYADSVKGRFTISRDNAKNTVYLQMNSLKPEDTAVYYCAATRRRPSEYYYWGPGTQVTVSS | high polyreactivity
QVQLVESGGGLVQAGGSLRLSCAASGLTFSLNAMGWYRQAPGKERELVAAIRGSGGSTYYADSVKGRFTISRDNAKNTVYLQMNCLKPEDTAVYYCNADQLVWQRYGVLYEYDYWGQGTQVTVSS | high polyreactivity
QVQLVESGGGLVQAGGSLRLSCAASGITFYYYGMGWYRQATGKERELVAAISTGGNTNYADSVKGRFTISRDNAKNTVYLQMNSLKPEDTAVYYCAASFASKYEYWGQGTQVTVSS | high polyreactivity
QVQLVESGGGLVQAGGSLRLSCAASGFTFYRYAMGWYRQAPGKERELVAAITRSGSRSYYADSVKGRFTISRDNAKNTVYLQMNSLKPEDTAVYSCNGPRPASTDRRRYNYCGQGTQVTVSS | high polyreactivity
QVQLVESGGGLVQAGGSLRLSCAASGSTFSYYAMGWYRQAPGKEREFVAAISYSTTSTFYADSVKGRFTISRDNAKNTVYLQMNSLKPEDTAVYYCAARARYSPATYDYWGQGTQVTVSS | high polyreactivity
QVQLVESGGGLVQAGGSLRLSCAASGRIFDQNAMGWYRQAPGKERELVAAITWSGGSTNYADSVKVRFTISRDNSKNTVYLLMNSLKTEDTAVYYCNKVSYGYSTYGYWGQGTQVTVSS | low polyreactivity
QVQLVESGGGLVQAGGSLRLSCAASGIPRNTMGWYRQAPGKERELVASISTSGGSTYYADSVKGRFTLSRDNANNTVYLQMNSLKPEDTAVYYCAKKGYASRYFIYDYWGQGTQVTVSS | low polyreactivity
QVQLVESGGGLVQAGGSLRLSCAASGFTFHYYAMGWYRQAPGKERELVAAISWSSGRTYYADSVKGRFTISRDNAKNTVYLQMNSLKPEDTAVYYCAASSYNRRDYWGQGTQVTVSS | high polyreactivity
QVQLVESGGGLDQAGGSHRLSCAASGSTFPYPNTMGWYRQAPGKERELVAVISRTGGSTFYADSVKWRFTISRDNAKNTVYFQMNSLKPEDTAVYYCAARRDGWTFWKYDYWGHGTQVTVSS | high polyreactivity
QVQLVESGGGLVQAGVSLRLSCAASGFIFRPYTMGWYRLAPGKERELVAAISRSGDSTYYADSVKGRFTISRDNAKNTVYLQMNSLKPEDTAVYYCAAYYNGRVGPYYYWGQGTQVTVSS | high polyreactivity
QVQLVESGGGLVQAGGSLRLSCAASGRISESNDMGWYRPAPGKERELVAAISSSGGSTYYADSVKGRFTISRDNAKNTVYLQMNSLKPEDTAVDYCNAVYYRTVLKIGVYEYDYWGQGTQVTVSS | low polyreactivity
QVQLVESGGGLVQAGGSLRLSCAASGSIIPLYAMGWYRQAPGKERELVATINRRTGSTYADSVKGRFTISRDNAKNTVYLQMNSLKPEDTAVYYCNAADNYVRFYKTRIYNYWGQGTQVTVSS | high polyreactivity
QVQLVESGGGLVQAGGSLRLSCAASGSIFFSNVMGWYRQAPGKERELVAAIRWSGDSTYYADSVKRRFTISRDNAKNTVYLQMNSLKPEDTAVYYCARDVYGSVSVSGYYYWGQGTQVTVSA | low polyreactivity
